Measured values published in the supplement of paper PMC11316812.
± gives the standard deviation of the averaged measurements.

Experiments:
[1] = system: MCF7; assay: percentage of EdU-negative (G0-arrested) nuclei per well, 72 h; higher = more G0 arrest; conditions: reference: sequence is the full UniProt precursor, the tested protein was the secreted form or ectodomain
[2] = system: hTERT-HMEC; assay: as above; conditions: reference: sequence is the full UniProt precursor, the tested protein was the secreted form or ectodomain
[3] = protein concentration 0.02632 µM
[4] = protein concentration 0.2632 µM
[5] = protein concentration 0.0225 µM
[6] = protein concentration 0.03125 µM
[7] = protein concentration 0.3125 µM
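Also: secreted proteins added to cultured cells, EdU pulse at the end, nuclei found by Hoechst imaging, EdU status from nuclear versus surrounding ring intensity ratio, PBS as neutral control.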

| Sequence | percentage of EdU-negative [1, 5] | percentage of EdU-negative ([1]; protein concentration 0.225 µM) | percentage of EdU-negative [2, 5] | percentage of EdU-negative ([2]; protein concentration 0.225 µM) | further results |
| --- | --- | --- | --- | --- | --- |
| MRGLLVLSVLLGAVFGKEDFVGHQVLRISVADEAQVQKVKELEDLEHLQLDFWRGPAHPGSPIDVRVPFPSIQAVKIFLESHGISYETMIEDVQSLLDEEQEQMFAFRSRARSTDTFNYATYHTLEEIYDFLDLLVAENPHLVSKIQIGNTYEGRPIYVLKFSTGGSKRPAIWIDTGIHSREWVTQASGVWFAKKITQDYGQDAAFTAILDTLDIFLEIVTNPDGFAFTHSTNRMWRKTRSHTAGSLCIGVDPNRNWDAGFGLSGASSNPCSETYHGKFANSEVEVKSIVDFVKDHGNIKAFISIHSYSQLLMYPYGYKTEPVPDQDELDQLSKAAVTALASLYGTKFNYGSIIKAIYQASGSTIDWTYSQGIKYSFTFELRDTGRYGFLLPASQIIPTAKETWLALLTIMEHTLNHPY | – | – | – | – | percentage of EdU-negative [1, 3]: 25.44 ± 0.046%; percentage of EdU-negative [1, 4]: 27.3 ± 3%; percentage of EdU-negative [2, 3]: 5.61 ± 0.74%; percentage of EdU-negative [2, 4]: 8.13 ± 1.2% |
| MRGPSGALWLLLALRTVLGGMEVRWCATSDPEQHKCGNMSEAFREAGIQPSLLCVRGTSADHCVQLIAAQEADAITLDGGAIYEAGKEHGLKPVVGEVYDQEVGTSYYAVAVVRRSSHVTIDTLKGVKSCHTGINRTVGWNVPVGYLVESGRLSVMGCDVLKAVSDYFGGSCVPGAGETSYSESLCRLCRGDSSGEGVCDKSPLERYYDYSGAFRCLAEGAGDVAFVKHSTVLENTDGKTLPSWGQALLSQDFELLCRDGSRADVTEWRQCHLARVPAHAVVVRADTDGGLIFRLLNEGQRLFSHEGSSFQMFSSEAYGQKDLLFKDSTSELVPIATQTYEAWLGHEYLHAMKGLLCDPNRLPPYLRWCVLSTPEIQKCGDMAVAFRRQRLKPEIQCVSAKSPQHCMERIQAEQVDAVTLSGEDIYTAGKTYGLVPAAGEHYAPEDSSNSYYVVAVVRRDSSHAFTLDELRGKRSCHAGFGSPAGWDVPVGALIQRGFIRPKDCDVLTAVSEFFNASCVPVNNPKNYPSSLCALCVGDEQGRNKCVGNSQERYYGYRGAFRCLVENAGDVAFVRHTTVFDNTNGHNSEPWAAELRSEDYELLCPNGARAEVSQFAACNLAQIPPHAVMVRPDTNIFTVYGLLDKAQDLFGDDHNKNGFKMFDSSNYHGQDLLFKDATVRAVPVGEKTTYRGWLGLDYVAALEGMSSQQCSGAAAPAPGAPLLPLLLPALAARLLPPAL | 26.1 ± 0.62% | 27.8 ± 1.6% | 6.116 ± 0.02% | 26.6 ± 0.69% | – |
| MRGTPGDADGGGRAVYQSMCKPITGTINDLNQQVWTLQGQNLVAVPRSDSVTPVTVAVITCKYPEALEQGRGDPIYLGIQNPEMCLYCEKVGEQPTLQLKEQKIMDLYGQPEPVKPFLFYRAKTGRTSTLESVAFPDWFIASSKRDQPIILTSELGKSYNTAFELNIND [Q9NZH8] | 22.9 ± 0.82% | 23 ± 2.5% | 4.85 ± 0.94% | 5.31 ± 0.92% | – |
| MRHLGAFLFLLGVLGALTEMCEIPEMDSHLVEKLGQHLLPWMDRLSLEHLNPSIYVGLRLSSLQAGTKEDLYLHSLKLGYQQCLLGSAFSEDDGDCQGKPSMGQLALYLLALRANCEFVRGHKGDRLVSQLKWFLEDEKRAIGHDHKGHPHTSYYQYGLGILALCLHQKRVHDSVVDKLLYAVEPFHQGHHSVDTAAMAGLAFTCLKRSNFNPGRRQRITMAIRTVREEILKAQTPEGHFGNVYSTPLALQFLMTSPMRGAELGTACLKARVALLASLQDGAFQNALMISQLLPVLNHKTYIDLIFPDCLAPRVMLEPAAETIPQTQEIISVTLQVLSLLPPYRQSISVLAGSTVEDVLKKAHELGGFTYETQASLSGPYLTSVMGKAAGEREFWQLLRDPNTPLLQGIADYRPKDGETIELRLVSW | – | – | – | – | percentage of EdU-negative ([1]; protein concentration 0.012 µM): 27 ± 1.9%; percentage of EdU-negative ([1]; protein concentration 0.12 µM): 25.5 ± 1.3%; percentage of EdU-negative ([2]; protein concentration 0.012 µM): 5.24 ± 0.2%; percentage of EdU-negative ([2]; protein concentration 0.12 µM): 6.61 ± 0.18% |
| MRIMLLFTAILAFSLAQSFGAVCKEPQEEVVPGGGRSKRDPDLYQLLQRLFKSHSSLEGLLKALSQASTDPKESTSPEKRDMHDFFVGLMGKRSVQPDSPTDVNQENVPSFGILKYPPRAE [Q9UHF0] | 22.8 ± 2.6% | 25.6 ± 1.7% | 5.911 ± 0.0092% | 5.91 ± 0.065% | – |
| MRIWWLLLAIEICTGNINSQDTCRQGHPGIPGNPGHNGLPGRDGRDGAKGDKGDAGEPGRPGSPGKDGTSGEKGERGADGKVEAKGIKGDQGSRGSPGKHGPKGLAGPMGEKGLRGETGPQGQKGNKGDVGPTGPEGPRGNIGPLGPTGLPGPMGPIGKPGPKGEAGPTGPQGEPGVRGIRGWKGDRGEKGKIGETLVLPKSAFTVGLTVLSKFPSSDMPIKFDKILYNEFNHYDTAAGKFTCHIAGVYYFTYHITVFSRNVQVSLVKNGVKILHTKDAYMSSEDQASGGIVLQLKLGDEVWLQVTGGERFNGLFADEDDDTTFTGFLLFSSP [P0C862] | – | – | – | – | percentage of EdU-negative [1, 6]: 28.2 ± 0.72%; percentage of EdU-negative [1, 7]: 30.09 ± 0.089%; percentage of EdU-negative [2, 6]: 5.3 ± 0.76%; percentage of EdU-negative [2, 7]: 7.183 ± 0.018% |
